Assay results: publication PMC4517790 (PLoS ONE, 2015)
Substitutions are numbered along the chain they refer to. Names and notes keep the numbering of the source.

B1: AlrTt (Caldanaerobacter subterraneus subsp. tengcongensis MB4; Q360Y) (protein)
chain: MKFDGVRPTRVEVYLDAITHNFREIKKIVGKNVKIMAVIKGDAYGHGASYVAKFLEKEGVDYFGVATTEEALELREKGIKTPILIFGYTPPTQLRQIVKHDLTQTVYDIKYAKELEKESLKQNKRAKVHIKIDTGLGRIGYIDFDLAQKEILEMANMRGLILEGIYSHFAAASEDDRDYCKEQFDKFMNLISSLEKKRLKIPLKHIANAAAILNLNYSHLDMVRPGIILFGAYPSKRVERKVELRETLRFTTRVVHLKDVPAGFFIGYGKSFVTKRKSVIATIPVGYADGLDRRLSNNYKLLLKGKYVPIVGRVCMDQCMIDVTDVEGVEIGDEVVIIGTQNNETVSVESMADKIETIPYEVFSRISRRVPRVYFYDGIKIGEVNYLK
B2: AlrTt (Caldanaerobacter subterraneus subsp. tengcongensis MB4; Q360Y/S173D) (protein)
chain: B1 chain with S173D

How the values were obtained:
[1] = biological target: Alanine racemase AlrTt (MBAlr1) from Thermoanaerobacter tengcongensis MB4, wild type (Thermoanaerobacter tengcongensis MB4) (UniProt Q8RAK6); assay: crystal structure; AlrTt (10 mg/mL) incubated with L-Ala and PLP at 1:1.5:1.5 molar ratio, hanging drop, 22% PEG 4000, 0.1 M Bis-Tris pH 7.0, 289 K; 2.7 Å; homodimer in one asymmetric unit
[2] = biological target: T1, AlrTt (Caldanaerobacter subterraneus, UniProt Q8RAK6); assay: PLP content by absorption at […] nm; assay type: binding; conditions: active site, internal aldimine with Lys40 (covalent); in the crystal only the phosphate group of PLP was seen
T1 construct: gene alr1; full length, pET-28a, N- and C-terminal 6xHis tags, E. coli BL21(DE3); 388 residues; homodimer in crystal, monomer in size exclusion

[3] = biological target: T1, AlrTt; assay: X-ray crystal structure, […] Å; assay type: binding; conditions: co-crystallized with L-Ala and PLP, pH 7.0; active site
[4] = substrate: C[C@H](N)C(=O)O; assay: purified protein; conditions: L-Ala to D-Ala; conditions of the kinetic assay not given
[5] = substrate: C[C@@H](N)C(=O)O; assay: purified protein; conditions: D-Ala to L-Ala; conditions of the kinetic assay not given

T1 sequence (Q8RAK6 whole entry): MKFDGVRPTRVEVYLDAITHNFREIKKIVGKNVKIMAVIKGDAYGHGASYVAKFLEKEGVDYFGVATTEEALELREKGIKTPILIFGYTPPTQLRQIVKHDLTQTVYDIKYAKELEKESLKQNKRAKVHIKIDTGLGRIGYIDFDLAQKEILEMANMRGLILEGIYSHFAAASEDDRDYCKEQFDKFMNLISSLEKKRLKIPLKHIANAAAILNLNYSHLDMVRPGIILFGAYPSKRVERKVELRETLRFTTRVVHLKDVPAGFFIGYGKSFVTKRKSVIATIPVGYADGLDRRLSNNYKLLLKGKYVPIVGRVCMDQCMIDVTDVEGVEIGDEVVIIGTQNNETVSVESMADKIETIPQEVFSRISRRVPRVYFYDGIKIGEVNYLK

| Molecule | Km [4] [mM] | kcat [4] [s⁻¹] | kcat/Km [4] [M⁻¹ s⁻¹] | Km [5] [mM] | kcat [5] [s⁻¹] | kcat/Km [5] [M⁻¹ s⁻¹] | further results |
| --- | --- | --- | --- | --- | --- | --- | --- |
| Alanine racemase AlrTt (MBAlr1) from Thermoanaerobacter tengcongensis MB4, wild type (from UniProt Q8RAK6 1-388) (enzyme) |  |  |  |  |  |  | stoichiometry N [1]: 2 |
| Cc1ncc(COP(=O)(O)O)c(C=O)c1O [PLP] |  |  |  |  |  |  | PLP content [2]: 1.44 ± 0.01 mol PLP per mol enzyme |
| C[C@H](N)C(=O)O [L-Ala] |  |  |  |  |  |  | X-ray crystal structure, 2.7 Å [3]: One L-Ala molecule is positioned in the active site pocket by hydrogen bonds |
| B1 | 87.81 ± 8.72 | 431 | 4910 | 52.03 ± 5.41 | 251 | 4830 |  |
| B2 | 83.10 ± 8.78 | 246 | 2970 | 58.48 ± 7.29 | 133 | 2270 |  |
